Source: patent publication US20260183411A1, “TARGETING SORTILIN” (priority 2024, published 2026)
Bridges are numbered along the chain shown (N, C = ends). Where no end group is shown, it is not given here. Side-chain parts run from the residue outwards. [ ]: non-standard residue; d: D form. tBuAla = CC(C)(C)C[C@H](N)C(=O)O; Tle = CC(C)(C)[C@H](N)C(=O)O; linker = not defined here; Nle = CCCC[C@H](N)C(=O)O; siRNA = not defined here

T1: mouse SORT1 (76-753)-His (mouse, UniProt Q6PHU5 76-753)
T1 construct: range 76-753; Amine-coupled to CM5 chip for SPR
T1 sequence (looked up): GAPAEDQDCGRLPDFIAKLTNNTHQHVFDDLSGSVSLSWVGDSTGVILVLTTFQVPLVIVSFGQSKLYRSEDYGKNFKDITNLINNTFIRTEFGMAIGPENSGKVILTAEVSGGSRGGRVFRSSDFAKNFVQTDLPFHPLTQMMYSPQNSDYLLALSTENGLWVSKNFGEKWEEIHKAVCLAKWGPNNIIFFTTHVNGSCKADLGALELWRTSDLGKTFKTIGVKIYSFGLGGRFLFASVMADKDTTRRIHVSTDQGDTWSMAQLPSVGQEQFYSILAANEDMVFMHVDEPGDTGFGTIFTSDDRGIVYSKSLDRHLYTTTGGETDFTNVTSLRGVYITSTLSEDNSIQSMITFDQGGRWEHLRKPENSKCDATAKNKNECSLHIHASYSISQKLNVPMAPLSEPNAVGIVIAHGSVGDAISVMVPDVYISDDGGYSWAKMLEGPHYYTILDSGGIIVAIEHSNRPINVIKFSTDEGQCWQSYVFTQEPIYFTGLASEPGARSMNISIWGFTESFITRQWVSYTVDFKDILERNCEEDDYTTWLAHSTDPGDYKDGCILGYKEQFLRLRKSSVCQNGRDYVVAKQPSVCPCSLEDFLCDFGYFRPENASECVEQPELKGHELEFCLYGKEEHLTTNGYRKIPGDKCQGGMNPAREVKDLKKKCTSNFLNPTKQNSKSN

B1: SORT1 peptide 3 conjugate (peptide)
peptide: RWCENK([linker-siRNA])R[Nle]FTCRQ[Tle][tBuAla]
modifications: disulfide 3-11 (inferred); not fully specified; printed as RWCENKR(Nle)FTCRQ(B13)(F02); reading uncertain
notes: also called SORT1 peptide 3 siRNA conjugate

Key:
[1] = Murine hematotoxicity assay; type: in vivo, mouse; settings: 3 mg/kg i.v. QW×4, BALB/c mice
Description: (§1) Murine hematotoxicity experiments were conducted at Charles River Laboratories and the care and use of animals was conducted in accordance with the regulations of the Association for Assessment and Accreditation of Laboratory Animal Care (AAALAC). Wild type BALB/c, female, 7-8 weeks, weighing approximately 18-22 g were randomized and dosed intravenously with control or test articles at a QW×4 schedule. Dosing volume was adjusted based on body weight and was administered at 10 mL/Kg. PDCs were dissolved in 25 mM Histidine 10% sucrose pH 7 and 3 mg/kg was administered. Free MMAE payload was also tested, and similarly dissolved in 25 mM Histidine 10% sucrose pH 7 and administered to the mice at a dose of […] by i.v. injection at a QW×4 schedule. 3 days following each dose, 150 μL of whole blood was collected via submandibular method and placed in K2 EDTA tubes stored on ice. Blood neutrophil counts were performed on the day of collection by IDEXX labs. Body weights were recorded twice a week until study endpoint.
as §1, with “As outlined in the material” for “Murine hematotoxicity experiments were conducted at Charles River Laboratories”, “methods” for “the care and use”, “Example 1, wild” for “animals was conducted in accordance with the regulations of the Association for Assessment and Accreditation of Laboratory Animal Care (AAALAC). Wild”, “PDCs were dissolved in 25 mM Histidine 10% sucrose pH 7 and 3 mg/kg was administered.” left out

[2] = molecular target: T1, mouse SORT1 (76-753)-His; assay: SPR (Biacore 8K), SORT1 on CM5 chip, siRNA-peptide conjugate as analyte, 1:1 model

Row | Molecule | blood neutrophil counts compared to vehicle or MMAE treatment [1] | Kd [2] [nM]
1 | CC[C@H](C)[C@@H]([C@@H](CC(=O)N1CCC[C@H]1[C@H](OC)[C@@H](C)C(=O)N[C@H](C)[C@@H](O)c1ccccc1)OC)N(C)C(=O)[C@@H](NC(=O)[C@H](C(C)C)N(C)C(=O)OCc1ccc(NC(=O)[C@H](CCCNC(N)=O)NC(=O)[C@@H](NC(=O)CCCC(=O)NCCC(=O)N(C)CC(=O)N(C)CC(=O)N(C)CC(=O)N(C)CC(=O)N[C@@H](C)C(=O)N2CCC[C@H]2C(=O)N[C@@H](CCCNC(=N)N)C(=O)N[C@@H](Cc2c[nH]c3ccccc23)C(=O)N[C@@H](CC(=O)O)C(=O)N[C@@H](C)C(=O)N2CCC[C@H]2C(=O)N[C@@H](CC(C)C)C(=O)N[C@@H](CCCNC(=N)N)C(=O)N[C@@H](CC(=O)O)C(=O)N2CCC[C@H]2C(=O)N[C@@H](C)C(=O)N[C@@H](CC(C)C)C(=O)N[C@@H](CCCNC(=N)N)C(=O)N[C@@H](CCC(N)=O)C(=O)N[C@@H](CC(C)C)C(=O)N[C@@H](CC(C)C)C(=O)O)C(C)C)cc1)C(C)C [PRGN_WT_PDC] | reduced neutrophil counts | 
2 | B1 |  | 178
